Data on one substance can be found in article PMC2622761.

This test deals with GST-PfMTIP (P. falciparum (3D7)) (UniProt Q8I4W8). The test can be described thus: pull-down; GST or GST-MTIP coupled to glutathione-Sepharose 4B; 25 µg His-tagged Rab protein incubated overnight at 4°C; four washes in PBS (0.1% Triton X-100); detected by anti-His immunoblot.

The substance PfRab11A-His (natural protein) displayed a percent of input detected in the pull-down of 5%.
